Data reported in patent US20220267464A1 (Hoffmann-La Roche, published 2022).
Residue numbers refer to the chain shown, from its start. Names may count otherwise.

T1: human CEACAM5 (carcinoembryonic antigen, CEA) on cells (human, UniProt P06731 35-685)
T1 construct: endogenous on MKN45 gastric adenocarcinoma cells; full-length cDNA stably transfected in the CHO-K1 clones; also called huCEACAM5; MKN45 cells
T1 sequence: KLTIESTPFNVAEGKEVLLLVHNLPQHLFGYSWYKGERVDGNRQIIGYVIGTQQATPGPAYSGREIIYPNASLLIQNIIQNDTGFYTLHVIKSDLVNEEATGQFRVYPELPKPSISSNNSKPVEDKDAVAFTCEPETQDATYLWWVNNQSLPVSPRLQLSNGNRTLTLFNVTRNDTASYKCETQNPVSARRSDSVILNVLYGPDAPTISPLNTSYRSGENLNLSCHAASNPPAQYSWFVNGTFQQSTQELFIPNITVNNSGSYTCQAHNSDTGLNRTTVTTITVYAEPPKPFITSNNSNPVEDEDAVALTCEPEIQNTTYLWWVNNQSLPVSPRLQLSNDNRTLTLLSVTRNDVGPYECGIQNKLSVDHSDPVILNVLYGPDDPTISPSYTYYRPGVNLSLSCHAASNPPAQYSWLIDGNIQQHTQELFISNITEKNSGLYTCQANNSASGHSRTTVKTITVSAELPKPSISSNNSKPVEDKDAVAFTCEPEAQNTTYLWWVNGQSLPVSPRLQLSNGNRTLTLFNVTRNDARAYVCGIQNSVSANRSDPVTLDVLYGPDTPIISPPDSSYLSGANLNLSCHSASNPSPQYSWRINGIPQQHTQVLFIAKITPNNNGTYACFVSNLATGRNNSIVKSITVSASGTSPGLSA

B1: P1AE3113 (antibody, IgG1, V domains shown)
VH: QVQLVQSGAEVKKPGASVKVSCKASGFNIKDSYMHWVRQAPGQGLEWMGWIDPENGDTEYAPKFQGRVTMTTDTSISTAYMELSRLRSDDTAVYYCNEGTPTGPYYFDYWGQGTLVTVSS
VL: EIQMTQSPSSLSASVGDRVTITCRASQSISSYMHWYQQKPGKAPKLLIYSTSNLASGVPSRFSGSGSGTDFTLTISSLQPEDFATYYCQQRSSYPLTFGGGTKLEIK
notes: huIgG1 P329G LALA; also called MFE-H24 / MFE-L26
B2: P1AE3108 (antibody, IgG1, V domains shown)
VH: B1 VH with A16S, M70I, T74E, I76T, R85S, D89E
VL: B1 VL
notes: huIgG1 P329G LALA; also called MFE-H29 / MFE-L26
B3: P1AE3109 (antibody, IgG1, V domains shown)
VH: B1 VH with T72R
VL: B1 VL
notes: huIgG1 P329G LALA; also called MFE-H28 / MFE-L26
B4: P1AE3110 (antibody, IgG1, V domains shown)
VH: B1 VH with N97A, E98R
VL: B1 VL
notes: huIgG1 P329G LALA; also called MFE-H27 / MFE-L26
B5: P1AE3111 (antibody, IgG1, V domains shown)
VH: B1 VH with D57G, E59N, P62Q
VL: B1 VL
notes: huIgG1 P329G LALA; also called MFE-H26 / MFE-L26
B6: P1AE3112 (antibody, IgG1, V domains shown)
VH: B1 VH with F27Y, N28T, I29F
VL: B1 VL
notes: huIgG1 P329G LALA; also called MFE-H25 / MFE-L26
B7: P1AE3107 (antibody, IgG1, V domains shown)
VH: B1 VH
VL: EIQMTQSPSSLSASVGDRVTITCRASSSVPYMHWYQQKPGKAPKLLIYSTSNLASGVPSRFSGSGSGTDFTLTISSVQPEDFATYYCQQRSSYPLTFGGGTKLEIK
notes: huIgG1 P329G LALA; also called MFE-H24 / MFE-L27; huMFE23-L27-H24
B8: P1AE3090 (antibody, IgG1, V domains shown)
VH: B1 VH with A16S, M70I, T74E, I76T, R85S, D89E
VL: B7 VL with Y35L, N52S, A54Q
notes: huIgG1 P329G LALA; also called MFE-H29 / MFE-L29
B9: P1AE3091 (antibody, IgG1, V domains shown)
VH: B1 VH with T72R
VL: B7 VL with Y35L, N52S, A54Q
notes: huIgG1 P329G LALA; also called MFE-H28 / MFE-L29
B10: P1AE3092 (antibody, IgG1, V domains shown)
VH: B1 VH with N97A, E98R
VL: B7 VL with Y35L, N52S, A54Q
notes: huIgG1 P329G LALA; also called MFE-H27 / MFE-L29
B11: P1AE3093 (antibody, IgG1, V domains shown)
VH: B1 VH with D57G, E59N, P62Q
VL: B7 VL with Y35L, N52S, A54Q
notes: huIgG1 P329G LALA; also called MFE-H26 / MFE-L29
B12: P1AE3094 (antibody, IgG1, V domains shown)
VH: B1 VH with F27Y, N28T, I29F
VL: B7 VL with Y35L, N52S, A54Q
notes: huIgG1 P329G LALA; also called MFE-H25 / MFE-L29
B13: P1AE3095 (antibody, IgG1, V domains shown)
VH: B1 VH
VL: B7 VL with Y35L, N52S, A54Q
notes: huIgG1 P329G LALA; also called MFE-H24 / MFE-L29
B14: P1AE3096 (antibody, IgG1, V domains shown)
VH: B1 VH with A16S, M70I, T74E, I76T, R85S, D89E
VL: B7 VL with Y35L
notes: huIgG1 P329G LALA; also called MFE-H29 / MFE-L28
B15: P1AE3097 (antibody, IgG1, V domains shown)
VH: B1 VH with T72R
VL: B7 VL with Y35L
notes: huIgG1 P329G LALA; also called MFE-H28 / MFE-L28; huMFE23-L28-H28
B16: P1AE3099 (antibody, IgG1, V domains shown)
VH: B1 VH with D57G, E59N, P62Q
VL: B7 VL with Y35L
notes: huIgG1 P329G LALA; also called MFE-H26 / MFE-L28
B17: P1AE3100 (antibody, IgG1, V domains shown)
VH: B1 VH with F27Y, N28T, I29F
VL: B7 VL with Y35L
notes: huIgG1 P329G LALA; also called MFE-H25 / MFE-L28; huMFE23-L28-H25
B18: P1AE3101 (antibody, IgG1, V domains shown)
VH: B1 VH
VL: B7 VL with Y35L
notes: huIgG1 P329G LALA; also called MFE-H24 / MFE-L28; huMFE23-L28-H24
B19: P1AE3102 (antibody, IgG1, V domains shown)
VH: B1 VH with A16S, M70I, T74E, I76T, R85S, D89E
VL: B7 VL
notes: huIgG1 P329G LALA; also called MFE-H29 / MFE-L27; huMFE23-L27-H29
B20: P1AE3103 (antibody, IgG1, V domains shown)
VH: B1 VH with T72R
VL: B7 VL
notes: huIgG1 P329G LALA; also called MFE-H28 / MFE-L27; huMFE23-L27-H28
B21: P1AE3105 (antibody, IgG1, V domains shown)
VH: B1 VH with D57G, E59N, P62Q
VL: B7 VL
notes: huIgG1 P329G LALA; also called MFE-H26 / MFE-L27; huMFE23-L27-H26
B22: P1AE3114 (antibody, IgG1, V domains shown)
VH: B1 VH with A16S, M70I, T74E, I76T, R85S, D89E
VL: B7 VL with P30S, V77L
notes: huIgG1 P329G LALA; also called MFE-H29 / MFE-L25
B23: P1AE3115 (antibody, IgG1, V domains shown)
VH: B1 VH with T72R
VL: B7 VL with P30S, V77L
notes: huIgG1 P329G LALA; also called MFE-H28 / MFE-L25
B24: P1AE3119 (antibody, IgG1, V domains shown)
VH: B1 VH
VL: B7 VL with P30S, V77L
notes: huIgG1 P329G LALA; also called MFE-H24 / MFE-L25
B25: P1AE3120 (antibody, IgG1, V domains shown)
VH: B1 VH with A16S, M70I, T74E, I76T, R85S, D89E
VL: B7 VL with E1D, P30S, V77L
notes: huIgG1 P329G LALA; also called MFE-H29 / MFE-L24
B26: P1AE3121 (antibody, IgG1, V domains shown)
VH: B1 VH with T72R
VL: B7 VL with E1D, P30S, V77L
notes: huIgG1 P329G LALA; also called MFE-H28 / MFE-L24
B27: P1AE0096-001 MFE23 huIgG1 PG LALA (parental) (antibody, V domains shown)
VH: QVKLQQSGAELVRSGTSVKLSCTASGFNIKDSYMHWLRQGPEQGLEWIGWIDPENGDTEYAPKFQGKATFTTDTSSNTAYLQLSSLTSEDTAVYYCNEGTPTGPYYFDYWGQGTTVTVSS
VL: ENVLTQSPAIMSASPGEKVTITCSASSSVSYMHWFQQKPGTSPKLWIYSTSNLASGVPARFSGSGSGTSYSLTISRMEAEDAATYYCQQRSSYPLTFGAGTKLELK
notes: murine variable domains on huIgG1 P329G L234A L235A; also called parental murine MFE23 huIgG1 P329G LALA antibody

target: T1, human CEACAM5 (carcinoembryonic …); experiment: flow cytometry, MKN45 cells; parameters: AUC: unit not given beside the values

Binder	AUC	EC50 [nM]
B1	757	–
B2	2090	–
B3	695	–
B4	547	–
B5	578	–
B6	551	–
B7	91200	5.83
B8	61800	42
B9	83100	14.6
B10	482	–
B11	68100	16.1
B12	6910	47.6
B13	84900	11.1
B14	87800	10.5
B15	98700	6.45
B16	95300	10.2
B17	74100	9.89
B18	104000	6.58
B19	91500	5.41
B20	92400	5.88
B21	55900	7.92
B22	12800	30.6
B23	10200	20.7
B24	10300	41.9
B25	24200	12.4
B26	17500	17.1
B27	83500	9.36

target: T1, human CEACAM5 (carcinoembryonic …); experiment: flow cytometry, MKN-45 cells, goat F(ab')2 anti-human Fcγ-PE, gMFI

Binder	binding result
B1	no binding (tested: about 300 nM)
B2	no binding (tested: about 300 nM)
B3	no binding (tested: about 300 nM)
B4	no binding (tested: about 300 nM)
B5	no binding (tested: about 300 nM)
B6	no binding (tested: about 300 nM)
B10	no binding (tested: about 300 nM)
